According to patent EP4671273A1 (Anaveon AG, dated 2025):
Where a chain is given by its changes, count along the chain named.

B1: ZAP122 (antibody, human IgG1, V domains shown)
VH: QVQLQESGPGLVKPSETLSLTCTVSGGSISSDFWGWIRQPPGKGLEWIGYISSRGSTNYNPSLKRRVTISVDTSRNQFSLKLSSVTAADTAVYYCARSAGVTDFDFWGQGTLVTVSS
VL: DIQMTQSPSSVSASVGDRVTITCRASQGISSWLAWYQHKPGKAPKLLIYVASSLQSGVPSRFSGSGSGTDFTLTISSLQPEDFATYYCQQANSFPLTFGGGTKVEIK
B2: MIZ926 (antibody, human IgG1, V domains shown)
VH: EVQLVESGGGSVKPGGSLKLSCAASGLTFSHYYMYWVRQTPEKRLEWVAIISDGGDYTHYSDSVKGRFTISRDNAKNNLYLQMSSLQSEDTAMYYCAGDYGYGYEGWFAYWGQGTLVTVST
VL: DIVMTQSQKFMSTSVGDRVSVTCKASQNVDTYVAWYQQKPGQSPKALIYSTSYRYSGVPDRFTGSGSGTDFTLTISNVQSEDLAEYFCQQYNSYPWTFGGGTKLEIK
B3: ZAP122p2 Fab (Fab, V domains shown)
VH: B1 VH
VL: B1 VL with N92S
notes: Fab
B4: ZAP122m12 Fab (Fab, V domains shown)
VH: B1 VH with D32Y
VL: B1 VL
notes: Fab
B5: ZAP122m27 Fab (Fab, V domains shown)
VH: B1 VH with F106A
VL: B1 VL
notes: Fab
B6: ZAP122m5 Fab (Fab, V domains shown)
VH: B1 VH
VL: B1 VL with Q90A
notes: Fab
B7: ZAP122m9 Fab (Fab, V domains shown)
VH: B1 VH
VL: B1 VL with P95A
notes: Fab
B8: ZAP122m10 Fab (Fab, V domains shown)
VH: B1 VH
VL: B1 VL with L96A
notes: Fab
B9: ZAP122m22 Fab (Fab, V domains shown)
VH: B1 VH with V101A
VL: B1 VL
notes: Fab
B10: ZAP122m2 Fab (Fab, V domains shown)
VH: B1 VH with R75K
VL: B1 VL
notes: Fab
B11: ZAP122m20 Fab (Fab, V domains shown)
VH: B1 VH with S98A
VL: B1 VL
notes: Fab
B12: ZAP122m15 Fab (Fab, V domains shown)
VH: B1 VH with S52Y
VL: B1 VL
notes: Fab
B13: ZAP122m7 Fab (Fab, V domains shown)
VH: B1 VH
VL: B1 VL with S93A
notes: Fab
B14: ZAP122m19 Fab (Fab, V domains shown)
VH: B1 VH with R97A
VL: B1 VL
notes: Fab
B15: ZAP122m6 Fab (Fab, V domains shown)
VH: B1 VH
VL: B1 VL with N92A
notes: Fab
B16: ZAP122m16 Fab (Fab, V domains shown)
VH: B1 VH with S53Y
VL: B1 VL
notes: Fab
B17: ZAP122m1 Fab (Fab, V domains shown)
VH: B1 VH
VL: B1 VL with Q37Y
notes: Fab
B18: ZAP122m11 Fab (Fab, V domains shown)
VH: B1 VH
VL: B1 VL with T97A
notes: Fab
B19: ZAP122m18 Fab (Fab, V domains shown)
VH: B1 VH with R65S
VL: B1 VL
notes: Fab; also called clone m18
B20: ZAP122m3 Fab (Fab, V domains shown)
VH: B1 VH
VL: B1 VL with V50A
notes: Fab
B21: ZAP122m17 Fab (Fab, V domains shown)
VH: B1 VH with R54S
VL: B1 VL
notes: Fab; also called clone m17
B22: ZAP122m4 Fab (Fab, V domains shown)
VH: B1 VH
VL: B1 VL with Q89A
notes: Fab
B23: ZAP122m23 Fab (Fab, V domains shown)
VH: B1 VH with T102A
VL: B1 VL
notes: Fab
B24: ZAP122m8 Fab (Fab, V domains shown)
VH: B1 VH
VL: B1 VL with F94A
notes: Fab
B25: ZAP122m21 Fab (Fab, V domains shown)
VH: B1 VH with G100A
VL: B1 VL
notes: Fab
B26: ZAP122m14 Fab (Fab, V domains shown)
VH: B1 VH with G35S
VL: B1 VL
notes: Fab
B27: ZAP122m24 Fab (Fab, V domains shown)
VH: B1 VH with D103A
VL: B1 VL
notes: Fab
B28: ZAP122m26 Fab (Fab, V domains shown)
VH: B1 VH with D105A
VL: B1 VL
notes: Fab
B29: ZAP122m25 Fab (Fab, V domains shown)
VH: B1 VH with F104A
VL: B1 VL
notes: Fab
B30: ZAP122m13 Fab (Fab, V domains shown)
VH: B1 VH with F33Y
VL: B1 VL
notes: Fab
B31: ZAP122p1 Fab (Fab, V domains shown)
VH: B1 VH
VL: B1 VL with N92Q
notes: Fab

molecular target: recombinant human IL-21 (rhIL-21) (human, UniProt Q9HBE4 30-162, limits assumed); experiment: cell-based or functional assay
Sequence (Q9HBE4 30-162 limits assumed): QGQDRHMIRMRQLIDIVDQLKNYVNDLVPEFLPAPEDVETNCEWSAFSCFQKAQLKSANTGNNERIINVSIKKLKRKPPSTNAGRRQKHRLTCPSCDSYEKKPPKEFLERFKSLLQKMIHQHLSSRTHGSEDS

| % pSTAT3+ Jurkat cells, 0.1 nM rhIL-21 + 0 nM antibody [%] | % pSTAT3+ Jurkat cells, 0.1 nM rhIL-21 + 0.1012 nM antibody [%] | % pSTAT3+ Jurkat cells, 0.1 nM rhIL-21 + 0.1602 nM antibody [%] | % pSTAT3+ Jurkat cells, 0.1 nM rhIL-21 + 0.2536 nM antibody [%] | % pSTAT3+ Jurkat cells, 0.1 nM rhIL-21 + 0.4015 nM antibody [%] | % pSTAT3+ Jurkat cells, 0.1 nM rhIL-21 + 0.6355 nM antibody [%] | % pSTAT3+ Jurkat cells, 0.1 nM rhIL-21 + 1.006 nM antibody [%] | % pSTAT3+ Jurkat cells, 0.1 nM rhIL-21 + 1.5925 nM antibody [%] | % pSTAT3+ Jurkat cells, 0.1 nM rhIL-21 + 2.5209 nM antibody [%] | % pSTAT3+ Jurkat cells, 0.1 nM rhIL-21 + 3.9906 nM antibody [%] | Binder |
| --- | --- | --- | --- | --- | --- | --- | --- | --- | --- | --- |
| 82 | 33.3 | 33.2 | 18.2 | 22.8 | 33 | 10.8 | 9.01 | 6.78 | 5.32 | B1 |
| 82.5 | 75.1 | 72.4 | 70.7 | 69.9 | 68.5 | 65.3 | 64.8 | 64.5 | 61.8 | B2 |

same assay, conditions: not given

| % pSTAT3+ Jurkat cells, 0.1 nM rhIL-21 + 6.3171 nM antibody [%] | % pSTAT3+ Jurkat cells, 0.1 nM rhIL-21 + 10 nM antibody [%] | Binder |
| --- | --- | --- |
| 8.64 | 6.63 | B1 |
| 57.5 | 57.5 | B2 |

molecular target: T1, Recombinant hIL-21-Fc (AcroBiosystems) (human, UniProt Q9HBE4 30-162); experiment: SPR, Fab on captured rhIL-21-Fc
T1 construct: bought; also called rhIL-21; not shown: Fc of the bought reagent, not described
T1 sequence (Q9HBE4 30-162): as the sequence (Q9HBE4 30-162 limits assumed) above

| Kd [nM] | koff [s⁻¹] | kon [M⁻¹ s⁻¹] | binding result | Binder |
| --- | --- | --- | --- | --- |
| 0.0328 | 1.14e-05 | 348000 |  | B3 |
| 8.83 | 0.00424 | 481000 |  | B4 |
| < 0.0242 | < 1e-05 | 414000 |  | B5 |
| ≤ 0.088 | ≤ 1e-05 | 114000 |  | B6 |
| 0.249 | 5.93e-05 | 238000 |  | B7 |
| 2.4 | 0.000613 | 256000 |  | B8 |
| 8.73 | 0.0034 | 389000 |  | B9 |
| 0.034 | 1.23e-05 | 363000 |  | B10 |
| 0.0435 | 1.94e-05 | 446000 |  | B11 |
| < 0.0174 | < 1e-05 | 574000 |  | B12 |
| < 0.0258 | < 1e-05 | 387000 |  | B13 |
| 6.08 | 0.000775 | 127000 |  | B14 |
| 0.0379 | 1.43e-05 | 379000 |  | B15 |
| < 0.0283 | < 1e-05 | 353000 |  | B16 |
| 0.0517 | 1.91e-05 | 369000 |  | B17 |
| 0.0404 | 1.46e-05 | 363000 |  | B18 |
| 0.0463 | 1.4e-05 | 302000 |  | B19 |
| 0.251 | 9.3e-05 | 370000 |  | B20 |
| 0.0842 | 2.81e-05 | 334000 |  | B21 |
| 3.49 | 0.000253 | 72400 |  | B22 |
| 0.137 | 3.29e-05 | 240000 |  | B23 |
| 9.49 | 0.00251 | 264000 |  | B24 |
| 2.19 | 0.0011 | 505000 |  | B25 |
| 1.01 | 0.000263 | 260000 |  | B26 |
|  |  |  | no binding | B27 |
| 3.01 | 0.000701 | 233000 |  | B28 |
| 5.6 | 0.00059 | 105000 |  | B29 |
| 0.0565 | 1.78e-05 | 316000 |  | B30 |
| 0.0386 | 1.38e-05 | 357000 |  | B31 |
